From the Human Domainome abundance scans (Beltran et al. 2025)
± gives the uncertainty stated by the source.

B1: E3 ubiquitin-protein ligase NEDD4, residues 836 to 881; numbered along this chain, P46934 (parent)
chain: EIEQGFLPKGWEVRHAPNGRPFFIDHNTKTTTWEDPRLKIPAHLRG

Variants of: B1
Assay: abundance fitness (aPCA) (normalised: wild type 0, dead -1); higher = more abundant; growth selection in yeast, the domain comes from the species named
Conditions: Homo sapiens
Work on W33F yielded an abundance fitness of -0.142 ± 0.066. In the case of T31Y, the abundance fitness is reported as -0.511 ± 0.09. Work on V13W yielded an abundance fitness of -0.842 ± 0.12. Work on L7Y yielded an abundance fitness of -0.915 ± 0.23. Variant L44E has an abundance fitness of -0.07 ± 0.049. For F23Q, the abundance fitness was -0.824 ± 0.1. In the case of L44I, the abundance fitness is reported as -0.053 ± 0.045. Variant T28N has an abundance fitness of 0.035 ± 0.067. T30G gave an abundance fitness of -0.595 ± 0.055. Variant T32C has an abundance fitness of -0.538 ± 0.12. In the case of K39T, the abundance fitness is reported as -0.023 ± 0.064. With R14M the abundance fitness was -0.525 ± 0.08. Variant P17L has an abundance fitness of -0.197 ± 0.058. Work on Q4N yielded an abundance fitness of -0.092 ± 0.059. Q4C showed an abundance fitness of 0.012 ± 0.057. R37Q gave an abundance fitness of -0.665 ± 0.13. In the case of R14Y, the abundance fitness is reported as -0.407 ± 0.054. I2M showed an abundance fitness of -0.044 ± 0.074. With Q4K the abundance fitness was 0.127 ± 0.067. Variant G5I has an abundance fitness of -0.219 ± 0.052. In the case of G10I, the abundance fitness is reported as -1.17 ± 0.28. L44C showed an abundance fitness of 0.004 ± 0.041. K39L showed an abundance fitness of -0.144 ± 0.046. R37P showed an abundance fitness of -0.867 ± 0.12. P36V gave an abundance fitness of -0.96 ± 0.1. Variant W33E has an abundance fitness of -0.221 ± 0.067. Work on R14E yielded an abundance fitness of -0.539 ± 0.091. K39S gave an abundance fitness of -0.098 ± 0.037. In the case of E3T, the abundance fitness is reported as -0.029 ± 0.042. Work on R20P yielded an abundance fitness of -0.857 ± 0.17. For D35N, the abundance fitness was -0.979 ± 0.18. In the case of G10W, the abundance fitness is reported as -0.802 ± 0.061. For H15N, the abundance fitness was -0.113 ± 0.037. G19E showed an abundance fitness of -0.628 ± 0.072. With K29F the abundance fitness was -0.446 ± 0.11. F23M showed an abundance fitness of -0.751 ± 0.12. With H43M the abundance fitness was -0.251 ± 0.059. With A42I the abundance fitness was -0.398 ± 0.1. Work on P36F yielded an abundance fitness of -1.04 ± 0.34. R37I showed an abundance fitness of -0.75 ± 0.1. In the case of V13Q, the abundance fitness is reported as -0.135 ± 0.058. H15E gave an abundance fitness of -0.116 ± 0.072. Work on I24L yielded an abundance fitness of 0.003 ± 0.083. Variant T28Y has an abundance fitness of -0.548 ± 0.12. In the case of F6L, the abundance fitness is reported as 0.051 ± 0.031. P8Q showed an abundance fitness of -0.814 ± 0.25. W33C gave an abundance fitness of -0.653 ± 0.13. G10K gave an abundance fitness of -0.886 ± 0.19. L7A gave an abundance fitness of -0.599 ± 0.061. F6C showed an abundance fitness of 0.265 ± 0.06. For T32Q, the abundance fitness was 0.038 ± 0.082. Variant Q4M has an abundance fitness of -0.387 ± 0.084. L44N gave an abundance fitness of -0.34 ± 0.089. In the case of P8R, the abundance fitness is reported as -0.648 ± 0.057. Variant E12Q has an abundance fitness of -0.307 ± 0.077. L7E showed an abundance fitness of -0.437 ± 0.056. Work on P21Y yielded an abundance fitness of 0.055 ± 0.064. For H15F, the abundance fitness was -0.074 ± 0.087. For K29Y, the abundance fitness was -1 ± 0.34. With D25T the abundance fitness was -0.94 ± 0.23. K39R gave an abundance fitness of 0.003 ± 0.051. Variant D35T has an abundance fitness of -0.84 ± 0.15. L38R showed an abundance fitness of -0.012 ± 0.033. Work on T32F yielded an abundance fitness of -0.574 ± 0.042. R37M gave an abundance fitness of -0.364 ± 0.075. T30E gave an abundance fitness of -0.206 ± 0.11. Work on N18Y yielded an abundance fitness of -0.802 ± 0.23. In the case of G5Y, the abundance fitness is reported as 0.008 ± 0.056. P17G showed an abundance fitness of -0.323 ± 0.063. A42N gave an abundance fitness of -0.015 ± 0.043. For P8A, the abundance fitness was -0.766 ± 0.26. T30Y gave an abundance fitness of -0.818 ± 0.14. In the case of E34L, the abundance fitness is reported as -0.155 ± 0.053. N18I showed an abundance fitness of -0.976 ± 0.24. Work on A42K yielded an abundance fitness of -0.092 ± 0.052. W33A gave an abundance fitness of -0.365 ± 0.056. H26L showed an abundance fitness of -0.507 ± 0.05. For R14W, the abundance fitness was -0.458 ± 0.061. Work on R45V yielded an abundance fitness of -0.055 ± 0.049. With L7H the abundance fitness was -0.543 ± 0.12. Variant T28D has an abundance fitness of -0.327 ± 0.091. With F6H the abundance fitness was 0.05 ± 0.058. For D25F, the abundance fitness was -1.04 ± 0.22. A16N gave an abundance fitness of -0.435 ± 0.22.
